Results on two molecules are retold here after patent publication US20190234935A1 (Janssen / Centocor, published 2019).

The Kd is a measure of binding affinity in units of concentration. One may read the koff as a measure of how fast the partners let go of each other. The kon is a measure of how fast the partners come together.

The target in assay [1] is T1, GFRAL ECD-Fc (GFRAL extracellular domain, human IgG1 Fc, 6xHis-tag and Avi-tag) (human, UniProt Q6UXV0 19-351).
T1 construct: The recombinant signal peptide is left out; also called GFRAL extracellular domain (ECD)-Fc fusion; not shown: human IgG1 Fc; 6xHis-tag and Avi-tag at the C-terminus
T1 sequence: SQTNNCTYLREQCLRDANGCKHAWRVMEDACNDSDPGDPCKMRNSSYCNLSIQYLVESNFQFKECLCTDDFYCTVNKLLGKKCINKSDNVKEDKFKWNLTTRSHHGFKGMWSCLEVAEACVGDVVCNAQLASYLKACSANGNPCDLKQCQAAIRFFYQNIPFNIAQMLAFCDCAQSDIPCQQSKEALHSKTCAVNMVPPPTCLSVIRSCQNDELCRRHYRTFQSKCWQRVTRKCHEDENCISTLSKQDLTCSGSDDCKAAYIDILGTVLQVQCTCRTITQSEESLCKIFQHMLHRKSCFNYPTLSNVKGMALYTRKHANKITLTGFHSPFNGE
Nature of the assay: SPR.

The target in assay [2] is T2, cyno GFRAL ECD-Fc (cynomolgus monkey GFRAL extracellular domain fused to human IgG1 Fc with 6xHis-tag) (cynomolgus monkey). The assay is described as follows: SPR (ProteOn). The procedure:
Affinity measurements using Surface Plasmon Resonance (SPR) were performed using a ProteOn XPR36 system (Bio-Rad, Hercules, Calif.). A biosensor surface was prepared by coupling anti-Human IgG Fc (Jackson Immuno Research Labs, West Grove, Pa.) to the modified alginate polymer layer surface of a GLC chip (BioRad) using the manufacturer's instructions for amine-coupling chemistry. Approximately 5000 RU (response units) of mAbs were immobilized. The kinetic experiments were performed at 25° C. in running buffer (DPBS+0.01% P20+100 μg/ml BSA). To perform binding kinetic experiment of HSA-GDF15, GFRAL ECD-Fc or isotype control were captured followed by injections of ligands at 5 concentrations (in a 4-fold serial dilution). The association phase was monitored for 3 minutes at 50 μl/min, then followed by 15 minutes of buffer flow (dissociation phase). The chip surface was regenerated with two 18 second pulses of 100 mM H3PO4 (Sigma, St. Louis, Mo.) at 100 μL/min. The collected data were processed using ProteOn Manager software. First, the data was corrected for background using inter-spots. Then, double reference subtraction of the data was performed by using the buffer injection for analyte injections. The kinetic analysis of the data was performed using a Langmuir 1:1 binding model. […]

Assay [3] has as its target T2, cyno GFRAL ECD-Fc (cynomolgus monkey …). The assay is described as follows: SPR (ProteOn), GFRAL ECD-Fc captured by anti-human IgG Fc. The method, then:
(§1) Affinity measurements using Surface Plasmon Resonance (SPR) were performed using a ProteOn XPR36 system (Bio-Rad, Hercules, Calif.). A biosensor surface was prepared by coupling anti-Human IgG Fc (Jackson Immuno Research Labs, West Grove, Pa.) to the modified alginate polymer layer surface of a GLC chip (BioRad) using the manufacturer's instructions for amine-coupling chemistry. Approximately 5000 RU (response units) of mAbs were immobilized. The kinetic experiments were performed at 25° C. in running buffer (DPBS+0.01% P20+100 μg/ml BSA). To perform binding kinetic experiment of HSA-GDF15, GFRAL ECD-Fc or isotype control were captured followed by injections of ligands at 5 concentrations (in a 4-fold serial dilution). The association phase was monitored for 3 minutes at 50 μl/min, then followed by 15 minutes of buffer flow (dissociation phase). The chip surface was regenerated with two 18 second pulses of 100 mM H3PO4 (Sigma, St. Louis, Mo.) at 100 μL/min. The collected data were processed using ProteOn Manager software. First, the data was corrected for background using inter-spots. Then, double reference subtraction of the data was performed by using the buffer injection for analyte injections. The kinetic analysis of the data was performed using a Langmuir 1:1 binding model. The result was reported in the format of ka (On-rate), kd (Off-rate) and KD (equilibrium dissociation constant).

Assay [4] deals with T3, Human GFRAL ECD-Fc (human GFRAL extracellular domain fused to human IgG1 Fc with 6xHis-tag) (human, UniProt Q6UXV0 19-351).
T3 construct: not shown: Human IgG1 Fc, any junction and the C-terminal 6xHis
T3 sequence: T1 sequence
The assay is described as above. The method, then: as §1

B1: FlagTag-GDF15, homodimer (ligand)
chain: EFDYKDDDDKARNGDHCPLGPGRCCRLHTVRASLEDLGWADWVLSPREVQVTMCIGACPSQFRAANMHAQIKTSLHRLKPDTVPAPCCVPASYNPMVLIQKTDTGVSLQTYDDLLAKDCHCI
notes: it is counted on the native full length protein; also called non-fusion GDF15; mature GDF15 homodimer
In the case of B1, in assay [1], the Kd is 0.0196 nM, the dissociation rate constant (koff) stood at 0.000197 s⁻¹ and the kon was found to be 1.01e+07 M⁻¹ s⁻¹.

B2: HSA-GDF15 (Example 7; linker SEQ ID NO:26) (ligand, not shown: large carriers; small tags and cut ends)
chain: ARNGDHCPLGPGRCCRLHTVRASLEDLGWADWVLSPREVQVTMCIGACPSQFRAANMHAQIKTSLHRLKPDTVPAPCCVPASYNPMVLIQKTDTGVSLQTYDDLLAKDCHCI
modifications: Disulfide-linked homodimer through GDF15; one protomer is given.
notes: No His tag is told of for this construct; purified on HSA CaptureSelect resin
Turning to B2, the “fold difference in binding affinity against human GFRAL” value in assay [2] was not above 2 fold. Moreover, in assay [3], the dissociation constant Kd was 0.157 nM, the koff is 0.000291 s⁻¹ and the association rate constant (kon) worked out at 1.86e+06 M⁻¹ s⁻¹. Also, in assay [4], the Kd was 0.0861 nM, the koff amounted to 0.000156 s⁻¹ and the kon is 1.81e+06 M⁻¹ s⁻¹.
